The values that follow come from PMC6524640 (2019).

In this assay the target is calmodulin (Homo sapiens, UniProt P0DP23). In words: NMR titration.

No end group written: not given here.

In general, Kd refers to a measure of binding affinity in units of concentration. Molecule HFGKTGRASDQR (not fully specified) [CEACAM1 long form peptide LFWT] gave a Kd of 0.76 mM.
On to HFGKTGSSGPLQ (not fully specified) [CEACAM1 short form peptide SFWT], for which binding was put at a Kd of 1.44 mM.
